Experimental data as given in patent US20120219551A1.

How the values were obtained:
[1] = target: FcγRIIIA, soluble monomeric protein (extracellular region joined to the linker-AVITAG sequence) (human) (UniProt P08637); assay: yeast display FACS, biotinylated receptor chased with unlabeled receptor
[2] = target: soluble monomeric FcγRIIIA (extracellular region of FcγRIIIA joined to the linker-AVITAG sequence) (human) (UniProt P08637); assay: ELISA
[3] = target: soluble dimeric FcγRIIB-Fc fusion protein (extracellular domain of FcγRIIB fused to hinge-CH2-CH3 of human IgG2) (human) (UniProt P31994); assay: ELISA
Sequence of soluble dimeric FcγRIIB-Fc fusion protein (extracellular domain of FcγRIIB fused to hinge-CH2-CH3 of human IgG2) (human) (P31994 43-217): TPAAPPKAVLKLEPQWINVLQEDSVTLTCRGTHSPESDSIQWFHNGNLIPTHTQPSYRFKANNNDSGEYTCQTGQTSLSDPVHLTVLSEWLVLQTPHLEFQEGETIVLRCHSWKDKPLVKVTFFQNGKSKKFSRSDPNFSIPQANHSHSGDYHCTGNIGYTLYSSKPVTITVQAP

[4] = target: FcγRIIIA on natural killer cells of human donor PBMC (human) (UniProt P08637); assay: cell-based or functional assay
Sequence of FcγRIIIA on natural killer cells of human donor PBMC (human) (P08637 17-254): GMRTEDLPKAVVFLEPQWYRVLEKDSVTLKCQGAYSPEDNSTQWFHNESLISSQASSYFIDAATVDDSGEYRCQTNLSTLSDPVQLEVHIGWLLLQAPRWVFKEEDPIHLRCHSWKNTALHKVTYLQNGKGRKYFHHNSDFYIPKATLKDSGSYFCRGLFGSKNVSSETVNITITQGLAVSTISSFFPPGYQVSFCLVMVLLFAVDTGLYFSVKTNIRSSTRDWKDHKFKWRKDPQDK

[5] = target: soluble monomeric FcγRIIIA (extracellular region of FcγRIIIA joined to the linker-AVITAG sequence) (human) (UniProt P08637); assay: BIAcore: FcγRIIIA at 200 nM and 800 nM over ch4-4-20 captured on BSA-FITC; separate fit, average of the two concentrations (Table 14 prints 0.075)
[6] = target: soluble monomeric FcγRIIIA (extracellular region of FcγRIIIA joined to the linker-AVITAG sequence) (human) (UniProt P08637); assay: SPR (BIAcore), Ab captured on BSA-FITC, separate fit 200/800 nM
[7] = target: soluble dimeric FcγRIIB-Fc fusion protein (extracellular domain of FcγRIIB fused to hinge-CH2-CH3 of human IgG2) (human) (UniProt P31994); assay: as above
[8] = target: soluble dimeric FcγRIIB-Fc fusion protein (extracellular domain of FcγRIIB fused to hinge-CH2-CH3 of human IgG2) (human) (UniProt P31994); assay: ELISA of FcγRIIB binding, OD printed beside the sensorgram (Table 15 prints 0.08)
[9] = target: soluble monomeric FcγRIIIA (extracellular region of FcγRIIIA joined to the linker-AVITAG sequence) (human) (UniProt P08637); assay: BIAcore: FcγRIIIA at 200 nM and 800 nM over ch4-4-20 captured on BSA-FITC; separate fit, average of the two concentrations (Table 14 prints 90)
[10] = target: soluble dimeric FcγRIIB-Fc fusion protein (extracellular domain of FcγRIIB fused to hinge-CH2-CH3 of human IgG2) (human) (UniProt P31994); assay: BIAcore: FcγRIIB-Fc fusion at two concentrations over ch4-4-20 captured on BSA-FITC; separate fit, average of the two concentrations (Table 15 prints 0.085)

Sequence of soluble monomeric FcγRIIIA (extracellular region of FcγRIIIA joined to the linker-AVITAG sequence) (human) (P08637 17-208): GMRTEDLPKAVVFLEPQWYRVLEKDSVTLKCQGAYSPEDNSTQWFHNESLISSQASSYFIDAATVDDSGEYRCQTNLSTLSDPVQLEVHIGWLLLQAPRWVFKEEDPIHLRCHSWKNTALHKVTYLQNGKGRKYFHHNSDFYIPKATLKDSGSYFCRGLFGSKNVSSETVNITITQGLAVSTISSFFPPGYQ
Sequence of FcγRIIIA, soluble monomeric protein (extracellular region joined to the linker-AVITAG sequence) (human) (P08637 17-208 F176V limits assumed, form in doubt): as the sequence (P08637 17-208) above, with F160V counted along it

Substance	loss of cell staining after 1 minute with unlabeled FcγRIIIA [1]	ELISA, OD [2]	ELISA, OD [3]	ADCC, % [4]	koff [5]	Kd [6]	koff [6]	kon [6]	Kd [7]	koff [7]	ELISA, OD [8]	Kd [9]	koff [10]
Fc variant P396L (from UniProt P01857 1-330) (antibody)	50%	–	–	–	–	–	–	–	–	–	–	–	–
ch4-4-20 Mut11 (R255L, F243L) (antibody)	–	0.37 OD	0.08 OD	32%	0.073 s⁻¹	90 nM	0.075 s⁻¹	822000 M⁻¹ s⁻¹	82.3 nM	0.1 s⁻¹	0.1 OD	91.8 nM	–
ch4-4-20 wild type (chimeric anti-fluorescein antibody, IgG1)	–	0.5 OD	0.4 OD	17.5%	–	319 nM	–	–	61.4 nM	0.085 s⁻¹	–	–	0.0847 s⁻¹
